According to IntAct's records for PubMed 24685146:

B1: Vinculin (Gallus gallus (Chicken)), P12003-1 (parent)
chain: MPVFHTRTIESILEPVAQQISHLVIMHEEGEVDGKAIPDLTAPVSAVQAAVSNLVRVGKETVQTTEDQILKRDMPPAFIKVENACTKLVRAAQMLQADPYSVPARDYLIDGSRGILSGTSDLLLTFDEAEVRKIIRVCKGILEYLTVAEVVETMEDLVTYTKNLGPGMTKMAKMIDERQQELTHQEHRVMLVNSMNTVKELLPVLISAMKIFVTTKNTKSQGIEEALKNRNFTVEKMSAEINEIIRVLQLTSWDEDAWASKDTEAMKRALALIDSKMNQAKGWLRDPNAPPGDAGEQAIRQILDEAGKAGELCAGKERREILGTCKTLGQMTDQLADLRARGQGATPMAMQKAQQVSQGLDLLTAKVENAARKLEAMTNSKQAIAKKIDAAQNWLADPNGGSEGEEHIRGIMSEARKVAELCEEPKERDDILRSLGEISALTAKLSDLRRHGKGDSPEARALAKQIATSLQNLQSKTNRAVANTRPVKAAVHLEGKIEQAQRWIDNPTVDDRGVGQAAIRGLVAEGRRLANVMMGPYRQDLLAKCDRVDQLAAQLADLAARGEGESPQARAIAAQLQDSLKDLKARMQEAMTQEVSDVFSDTTTPIKLLAVAATAPSDTPNREEVFEERAANFENHAARLGATAEKAAAVGTANKTTVEGIQATVKSARELTPQVVSAARILLRNPGNQAAYEHFETMKNQWIDNVEKMTGLVDEAIDTKSLLDASEEAIKKDLDKCKVAMANMQPQMLVAGATSIARRANRILLVAKREVENSEDPKFREAVKAASDELSKTISPMVMDAKAVAGNISDPGLQKSFLDSGYRILGAVAKVREAFQPQEPDFPPPPPDLEHLHLTDELAPPKPPLPEGEVPPPRPPPPEEKDEEFPEQKAGEAINQPMMMAARQLHDEARKWSSKGNDIIAAAKRMALLMAEMSRLVRGGSGNKRALIQCAKDIAKASDEVTRLAKEVAKQCTDKRIRTNLLQVCERIPTISTQLKILSTVKATMLGRTNISDEESEQATEMLVHNAQNLMQSVKETVREAEAASIKIRTDAGFTLRWVRKTPWYQ

Variants of: B1
Details: with acts_rabit ACTA1, P68135

Row | effect of a mutation on the interaction | Variant
1 | decreasing interaction strength | V1001A
2 | decreasing interaction strength | I997A
